Measured values reported in patent US20220010021A1 (Sanofi, published 2022).

T1: human beta-Klotho (KLB) (human, UniProt Q86Z14 53-997)
T1 construct: also called human KLB
T1 sequence (looked up): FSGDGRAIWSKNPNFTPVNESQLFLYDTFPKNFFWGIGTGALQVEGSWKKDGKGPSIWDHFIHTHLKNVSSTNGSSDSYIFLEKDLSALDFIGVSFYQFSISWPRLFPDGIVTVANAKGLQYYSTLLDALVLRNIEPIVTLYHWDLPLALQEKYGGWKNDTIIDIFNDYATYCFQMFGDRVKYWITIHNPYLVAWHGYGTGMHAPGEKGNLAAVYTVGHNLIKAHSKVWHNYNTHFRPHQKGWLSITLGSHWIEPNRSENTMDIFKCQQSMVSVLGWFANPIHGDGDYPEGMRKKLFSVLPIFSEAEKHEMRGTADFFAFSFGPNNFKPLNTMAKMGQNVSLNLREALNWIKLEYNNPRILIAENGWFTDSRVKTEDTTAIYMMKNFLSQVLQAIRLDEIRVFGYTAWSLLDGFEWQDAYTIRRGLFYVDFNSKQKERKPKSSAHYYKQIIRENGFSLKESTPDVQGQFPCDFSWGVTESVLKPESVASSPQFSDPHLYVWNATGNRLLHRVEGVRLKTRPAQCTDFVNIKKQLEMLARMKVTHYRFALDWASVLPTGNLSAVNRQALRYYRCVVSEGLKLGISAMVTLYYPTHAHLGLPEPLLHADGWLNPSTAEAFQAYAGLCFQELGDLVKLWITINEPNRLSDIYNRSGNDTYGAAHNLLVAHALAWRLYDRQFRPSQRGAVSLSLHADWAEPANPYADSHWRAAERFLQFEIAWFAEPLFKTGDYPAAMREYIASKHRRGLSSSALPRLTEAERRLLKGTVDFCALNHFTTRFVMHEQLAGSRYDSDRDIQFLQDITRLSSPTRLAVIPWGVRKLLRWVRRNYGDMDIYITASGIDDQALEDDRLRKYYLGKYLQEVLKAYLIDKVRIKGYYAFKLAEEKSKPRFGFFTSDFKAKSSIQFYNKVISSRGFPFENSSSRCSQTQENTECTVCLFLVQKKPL


Key:
human beta-Klotho (KLB) = biological target: T1, human beta-Klotho (KLB); experiment: BLI off-rate screen (Octet), Ab captured via Fc;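 note: antibody supernatants applied at 25 µg/mL, dissociation monitored over 1800 s in D-PBS with 0.1% BSA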
[1] = biological target: human FGFR1c/KLB cell surface receptor complex on iLite FGF21 reporter cells (human, UniProt P11362 22-822; Q86Z14 1-1044); experiment: cell-based or functional assay; for Mean E max (%): reference of the scale not given here
Sequence of human FGFR1c/KLB cell surface receptor complex on iLite FGF21 reporter cells (P11362 22-822, chain 1 of 2): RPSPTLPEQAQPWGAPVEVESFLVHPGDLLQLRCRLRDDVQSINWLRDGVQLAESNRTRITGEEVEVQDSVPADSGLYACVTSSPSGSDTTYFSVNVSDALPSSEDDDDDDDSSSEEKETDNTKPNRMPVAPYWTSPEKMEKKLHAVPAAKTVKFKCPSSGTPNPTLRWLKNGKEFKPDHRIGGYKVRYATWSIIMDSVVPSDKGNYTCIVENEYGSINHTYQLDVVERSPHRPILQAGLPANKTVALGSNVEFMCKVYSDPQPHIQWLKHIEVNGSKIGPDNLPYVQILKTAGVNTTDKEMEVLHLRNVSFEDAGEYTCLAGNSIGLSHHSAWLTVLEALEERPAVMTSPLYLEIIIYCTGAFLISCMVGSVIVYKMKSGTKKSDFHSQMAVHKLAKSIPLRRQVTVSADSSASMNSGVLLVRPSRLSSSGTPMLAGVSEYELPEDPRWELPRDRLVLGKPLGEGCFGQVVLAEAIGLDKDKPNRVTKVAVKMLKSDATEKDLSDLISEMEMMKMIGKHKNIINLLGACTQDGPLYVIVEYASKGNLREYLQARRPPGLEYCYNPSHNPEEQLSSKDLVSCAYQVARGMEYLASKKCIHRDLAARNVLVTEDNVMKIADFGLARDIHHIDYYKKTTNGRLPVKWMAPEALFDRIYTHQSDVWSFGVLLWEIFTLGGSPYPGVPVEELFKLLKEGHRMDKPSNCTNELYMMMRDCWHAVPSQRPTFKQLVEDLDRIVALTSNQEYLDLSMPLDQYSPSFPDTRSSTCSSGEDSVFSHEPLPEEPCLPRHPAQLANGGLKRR
Sequence of human FGFR1c/KLB cell surface receptor complex on iLite FGF21 reporter cells (Q86Z14 whole entry, chain 2 of 2): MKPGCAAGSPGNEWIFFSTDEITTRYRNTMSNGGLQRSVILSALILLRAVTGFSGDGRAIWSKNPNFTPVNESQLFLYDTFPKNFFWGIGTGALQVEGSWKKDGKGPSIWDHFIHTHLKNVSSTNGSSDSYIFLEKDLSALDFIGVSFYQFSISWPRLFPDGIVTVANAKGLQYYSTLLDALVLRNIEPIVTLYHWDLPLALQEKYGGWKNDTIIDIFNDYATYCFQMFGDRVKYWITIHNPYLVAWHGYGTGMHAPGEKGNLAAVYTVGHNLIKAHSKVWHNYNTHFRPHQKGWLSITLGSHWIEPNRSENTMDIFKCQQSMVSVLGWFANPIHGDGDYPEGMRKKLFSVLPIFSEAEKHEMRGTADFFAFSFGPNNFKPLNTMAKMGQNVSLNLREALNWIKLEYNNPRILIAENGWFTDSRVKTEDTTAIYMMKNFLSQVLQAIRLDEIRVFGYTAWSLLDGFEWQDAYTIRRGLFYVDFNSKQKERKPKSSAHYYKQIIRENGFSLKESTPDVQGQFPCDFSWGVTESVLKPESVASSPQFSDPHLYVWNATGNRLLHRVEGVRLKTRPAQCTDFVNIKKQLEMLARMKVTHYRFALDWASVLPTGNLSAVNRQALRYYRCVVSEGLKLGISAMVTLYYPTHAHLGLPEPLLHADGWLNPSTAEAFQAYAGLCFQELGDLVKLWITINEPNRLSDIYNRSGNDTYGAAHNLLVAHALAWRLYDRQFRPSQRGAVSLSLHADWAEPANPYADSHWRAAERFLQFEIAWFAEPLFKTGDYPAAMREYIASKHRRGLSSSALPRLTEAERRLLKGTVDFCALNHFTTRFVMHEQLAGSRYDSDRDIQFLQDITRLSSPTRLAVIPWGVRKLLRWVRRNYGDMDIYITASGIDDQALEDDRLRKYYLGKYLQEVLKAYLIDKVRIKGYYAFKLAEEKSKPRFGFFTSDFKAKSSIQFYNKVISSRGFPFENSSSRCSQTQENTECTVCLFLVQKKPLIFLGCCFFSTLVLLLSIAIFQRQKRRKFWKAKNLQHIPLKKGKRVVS

Binder | koff (human beta-Klotho (KLB)) [s⁻¹] | Mean E max (%) [1] [%] | Mean EC50 [1] [nM]
16H7 variant, light chain N26T (antibody, human IgG4 S228P, lambda, V domains shown, IgG4 backbone) VH: not shown VL: SYVLTQPPSVSVAPGQTARITCGGNTIGSESVHWYQQKPGQAPVLVVYDDSDRPSGIPERFSGSNSGNTATLTISRVEAGDEADYYCQVWDGNSDHVVFGGGTKLTVLG | 4.4e-05 | 105 | 0.143
16H7 variant, light chain D52L (antibody, human IgG4 S228P, lambda, V domains shown, IgG4 backbone) VH: not shown VL: SYVLTQPPSVSVAPGQTARITCGGNNIGSESVHWYQQKPGQAPVLVVYDDSLRPSGIPERFSGSNSGNTATLTISRVEAGDEADYYCQVWDGNSDHVVFGGGTKLTVLG | 5.7e-05 | 106 | 0.107
16H7 variant, light chain D52E (antibody, human IgG4 S228P, lambda, V domains shown, IgG4 backbone) VH: not shown VL: SYVLTQPPSVSVAPGQTARITCGGNNIGSESVHWYQQKPGQAPVLVVYDDSERPSGIPERFSGSNSGNTATLTISRVEAGDEADYYCQVWDGNSDHVVFGGGTKLTVLG | < 1e-05 | 123 | 0.114
16H7 variant, light chain D52G (antibody, human IgG4 S228P, lambda, V domains shown, IgG4 backbone) VH: not shown VL: SYVLTQPPSVSVAPGQTARITCGGNNIGSESVHWYQQKPGQAPVLVVYDDSGRPSGIPERFSGSNSGNTATLTISRVEAGDEADYYCQVWDGNSDHVVFGGGTKLTVLG | 3.7e-05 | 109 | 0.125
16H7 variant, light chain D52H (antibody, human IgG4 S228P, lambda, V domains shown, IgG4 backbone) VH: not shown VL: SYVLTQPPSVSVAPGQTARITCGGNNIGSESVHWYQQKPGQAPVLVVYDDSHRPSGIPERFSGSNSGNTATLTISRVEAGDEADYYCQVWDGNSDHVVFGGGTKLTVLG | 3.6e-05 | 97 | 0.109
16H7 variant, light chain D52M (antibody, human IgG4 S228P, lambda, V domains shown, IgG4 backbone) VH: not shown VL: SYVLTQPPSVSVAPGQTARITCGGNNIGSESVHWYQQKPGQAPVLVVYDDSMRPSGIPERFSGSNSGNTATLTISRVEAGDEADYYCQVWDGNSDHVVFGGGTKLTVLG | 2.4e-05 | 105 | 0.144
16H7 variant, light chain D52K (antibody, human IgG4 S228P, lambda, V domains shown, IgG4 backbone) VH: not shown VL: SYVLTQPPSVSVAPGQTARITCGGNNIGSESVHWYQQKPGQAPVLVVYDDSKRPSGIPERFSGSNSGNTATLTISRVEAGDEADYYCQVWDGNSDHVVFGGGTKLTVLG | 9.2e-05 | 101 | 0.117
16H7 variant, light chain D52F (antibody, human IgG4 S228P, lambda, V domains shown, IgG4 backbone) VH: not shown VL: SYVLTQPPSVSVAPGQTARITCGGNNIGSESVHWYQQKPGQAPVLVVYDDSFRPSGIPERFSGSNSGNTATLTISRVEAGDEADYYCQVWDGNSDHVVFGGGTKLTVLG | 7.9e-06 | 102 | 0.105
16H7 variant, light chain D52N (antibody, human IgG4 S228P, lambda, V domains shown, IgG4 backbone) VH: not shown VL: SYVLTQPPSVSVAPGQTARITCGGNNIGSESVHWYQQKPGQAPVLVVYDDSNRPSGIPERFSGSNSGNTATLTISRVEAGDEADYYCQVWDGNSDHVVFGGGTKLTVLG | 6.9e-07 | 115 | 0.124
16H7 variant, light chain D52I (antibody, human IgG4 S228P, lambda, V domains shown, IgG4 backbone) VH: not shown VL: SYVLTQPPSVSVAPGQTARITCGGNNIGSESVHWYQQKPGQAPVLVVYDDSIRPSGIPERFSGSNSGNTATLTISRVEAGDEADYYCQVWDGNSDHVVFGGGTKLTVLG | 2.8e-05 | 110 | 0.14
16H7 variant, light chain D52A (antibody, human IgG4 S228P, lambda, V domains shown, IgG4 backbone) VH: not shown VL: SYVLTQPPSVSVAPGQTARITCGGNNIGSESVHWYQQKPGQAPVLVVYDDSARPSGIPERFSGSNSGNTATLTISRVEAGDEADYYCQVWDGNSDHVVFGGGTKLTVLG | 4.8e-05 | 101 | 0.163
16H7 variant, light chain D52Q (antibody, human IgG4 S228P, lambda, V domains shown, IgG4 backbone) VH: not shown VL: SYVLTQPPSVSVAPGQTARITCGGNNIGSESVHWYQQKPGQAPVLVVYDDSQRPSGIPERFSGSNSGNTATLTISRVEAGDEADYYCQVWDGNSDHVVFGGGTKLTVLG | 2.7e-05 | 101 | 0.107
